Results taken from the supplement of paper PMC7125110.
± gives the standard error. For some of these results: Variants at the floor of the assay were thinned out.

B1: glmS ribozyme (parent)
chain: AUAAAAGCGCCAGAACUACAGAAAUGUAGUUGACGAGGAGGAGGUUUAUCGAAUUUUCGGCGGAUGCCUCCAAA

Tests used:
Conditions in all cases: with glucosamine-6-phosphate
[1] = variants of: B1; assay: kcat; higher = faster cleavage; RNA array
How it was run: (§1)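 Sequenced MiSeq chips were the platform: E. coli RNA polymerase transcribed barcoded ribozyme variants on them in situ, and a hybridised Cy3 probe tracked these at 37 °C. After glucosamine-6-phosphate (40 μM to 10 mM) in HEPES/KCl/Mg(OAc)2 buffer was flowed in, tiles were imaged over ~14 h. Signals normalised to baseline and to non-cleaving reference variants were reduced to per-tile medians and fit to one- or two-exponential decays to obtain kobs. kcat and KM were derived through weighted Michaelis–Menten fits across concentrations.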

[2] = variants of: B1; assay: self-cleavage kobs at 40 uM GlcN6P; higher = faster cleavage; RNA array
How it was run: as §1

[3] = variants of: B1; assay: self-cleavage kobs at 640 uM GlcN6P; higher = faster cleavage; RNA array
How it was run: as §1

[4] = variants of: B1; assay: KM; higher = weaker cofactor use; RNA array
How it was run: as §1

[5] = variants of: B1; assay: self-cleavage kobs at 160 uM GlcN6P; higher = faster cleavage; RNA array
How it was run: as §1

[6] = variants of: B1; assay: self-cleavage kobs at 2500 uM GlcN6P; higher = faster cleavage; RNA array
How it was run: as §1

[7] = variants of: B1; assay: self-cleavage kobs at 10000 uM GlcN6P; higher = faster cleavage; RNA array
How it was run: as §1

## AUAAAAGCGCCGGAACUACAGAAAUGUAGUUGACGAGUUGGAGGUUUAUCGAAUUUUCGGCGGAUGCCUCCAAA [A12G G38U A39U]
[1]
  kcat: < 1e-05 s⁻¹
[2]
  self-cleavage kobs at 40 uM GlcN6P: < 1e-05 s⁻¹
[3]
  self-cleavage kobs at 640 uM GlcN6P: < 1e-05 s⁻¹

## AUAAAAGCGCCAGAACUACAGAAAUGUAGUUGACGAGGAGGAGGUUUAUCGACUUUUCGGCGGAUGCCUCAAAA [A53C C71A]
[1]
  kcat: 0.000797 ± 0.00016 s⁻¹
[4]
  KM: 1610 ± 520 µM
[5]
  self-cleavage kobs at 160 uM GlcN6P: 6.89e-05 ± 1.5e-05 s⁻¹
[3]
  self-cleavage kobs at 640 uM GlcN6P: 0.000254 ± 0.00011 s⁻¹
[6]
  self-cleavage kobs at 2500 uM GlcN6P: 0.000705 ± 0.00017 s⁻¹
[7]
  self-cleavage kobs at 10000 uM GlcN6P: 0.000613 ± 0.00013 s⁻¹

## AUAAAAGCGCCAGAACUACAGAAAUGUAGUUGACGAGGAGGAGGUUUGUCGAAUUUUCGGCGGAUGCCCCCAAA [A48G U69C]
[1]
  kcat: 9.33e-05 ± 2.9e-05 s⁻¹
[6]
  self-cleavage kobs at 2500 uM GlcN6P: 9.27e-05 ± 3.5e-05 s⁻¹
[7]
  self-cleavage kobs at 10000 uM GlcN6P: 7.34e-05 ± 2.5e-05 s⁻¹

## AUAAAAGCGCCAGAACUACAGAAAUGUAGUUGACGUAGAGGAGGUUUAUCGAAUUUUCGGCGGAUGCCUCCAAA [A36U G37A]
[1]
  kcat: 1.19e-05 ± 3e-06 s⁻¹

## AUAAAAGCGCUAGACCUACAGAAAUGUAGUUGACGAGGAGGAGGUUUAUCUAAUUUUCGGCGGAUGCCUACAAA [C11U A15C G51U C70A]
[1]
  kcat: 6.95e-05 ± 2.4e-05 s⁻¹
[2]
  self-cleavage kobs at 40 uM GlcN6P: 6.91e-05 ± 1.9e-05 s⁻¹
[6]
  self-cleavage kobs at 2500 uM GlcN6P: 0.000111 ± 3.3e-05 s⁻¹
[7]
  self-cleavage kobs at 10000 uM GlcN6P: 5.08e-05 ± 2e-05 s⁻¹

## AUAAAAGCGCCCGAACUACAGAAAUGUAGUUGACGAGGUGGAGGUUUAUCGAAUUUUCGGCGGAUGCCUCCAAA [A12C A39U]
[1]
  kcat: 0.0119 ± 0.0024 s⁻¹
[4]
  KM: 2230 ± 600 µM
[2]
  self-cleavage kobs at 40 uM GlcN6P: 0.000239 ± 1.9e-05 s⁻¹
[5]
  self-cleavage kobs at 160 uM GlcN6P: 0.000824 ± 9.8e-05 s⁻¹
[3]
  self-cleavage kobs at 640 uM GlcN6P: 0.00219 ± 0.00025 s⁻¹
[6]
  self-cleavage kobs at 2500 uM GlcN6P: 0.00569 ± 0.00066 s⁻¹
[7]
  self-cleavage kobs at 10000 uM GlcN6P: 0.0112 ± 0.0011 s⁻¹

## AUAAAAGCGCCCGAACUACAGAAAUGUAGUUGACGAGGAGGAGGUUUAUCGAGUUUUCGGCGGAUGCCUCCAAA [A12C A53G]
[1]
  kcat: 0.0568 ± 0.027 s⁻¹
[2]
  self-cleavage kobs at 40 uM GlcN6P: 0.000585 ± 7.2e-05 s⁻¹
[5]
  self-cleavage kobs at 160 uM GlcN6P: 0.00162 ± 0.00033 s⁻¹
[3]
  self-cleavage kobs at 640 uM GlcN6P: 0.00569 ± 0.00072 s⁻¹
[6]
  self-cleavage kobs at 2500 uM GlcN6P: 0.0149 ± 0.0025 s⁻¹
[7]
  self-cleavage kobs at 10000 uM GlcN6P: 0.0471 ± 0.0076 s⁻¹

## AUAAAAGCGCCAGAACUACAGAAAUGUAGUUGACGAGGAGGAGGUUUAUCGAAUUUUCGGCGGGUGUCUCCAAA [A64G C67U]
[1]
  kcat: 0.00193 ± 0.0003 s⁻¹
[4]
  KM: 1860 ± 470 µM
[2]
  self-cleavage kobs at 40 uM GlcN6P: 2.93e-05 ± 7.3e-06 s⁻¹
[5]
  self-cleavage kobs at 160 uM GlcN6P: 0.000155 ± 2.3e-05 s⁻¹
[3]
  self-cleavage kobs at 640 uM GlcN6P: 0.000628 ± 8.6e-05 s⁻¹
[6]
  self-cleavage kobs at 2500 uM GlcN6P: 0.00125 ± 0.00017 s⁻¹
[7]
  self-cleavage kobs at 10000 uM GlcN6P: 0.00154 ± 0.00015 s⁻¹

## AUAAAAGCGCCAGAACUACAGAAAUGUAGUUGACGAGGAGGAGGUUUAUCGAACUUACGGCGGAUGCCUCCAAA [U54C U57A]
[1]
  kcat: 0.000407 ± 0.00018 s⁻¹
[3]
  self-cleavage kobs at 640 uM GlcN6P: 7.93e-05 ± 1.9e-05 s⁻¹
[6]
  self-cleavage kobs at 2500 uM GlcN6P: 0.000112 ± 2.5e-05 s⁻¹
[7]
  self-cleavage kobs at 10000 uM GlcN6P: 0.000297 ± 4.3e-05 s⁻¹

## AUAAAAGCGCCAGAACUACAGAAAUGUAGUUGACGAGGAGGAGGUUUAUCGUAUUUUCGGCGGAUGCUUCCAAA [A52U C68U]
[1]
  kcat: 0.000287 ± 4.1e-06 s⁻¹
[4]
  KM: 2080 ± 62 µM
[5]
  self-cleavage kobs at 160 uM GlcN6P: 1.96e-05 ± 8.9e-06 s⁻¹
[3]
  self-cleavage kobs at 640 uM GlcN6P: 6.72e-05 ± 8.8e-06 s⁻¹
[6]
  self-cleavage kobs at 2500 uM GlcN6P: 0.000158 ± 1.4e-05 s⁻¹
[7]
  self-cleavage kobs at 10000 uM GlcN6P: 0.000236 ± 2.4e-05 s⁻¹

## AUAAAAGCGCCAGAACUACAGAAAUGUAGUUGACGAGGAGGAGGAUUAUCGAAUUUUAGGCGGAUGCCUCCAAA [U45A C58A]
[1]
  kcat: 0.00117 ± 0.00038 s⁻¹
[3]
  self-cleavage kobs at 640 uM GlcN6P: 0.000188 ± 3.8e-05 s⁻¹
[6]
  self-cleavage kobs at 2500 uM GlcN6P: 0.000822 ± 0.00019 s⁻¹
[7]
  self-cleavage kobs at 10000 uM GlcN6P: 0.000803 ± 0.00016 s⁻¹

## AUAAAAGCGCCAUAACUACAGAAAUGUAGUUGACGAGGAGGAGGUUUAUCGAAUUAUCGGCGGAUGCCUCCAAA [G13U U56A]
[1]
  kcat: 0.0005 ± 2.3e-05 s⁻¹
[4]
  KM: 1880 ± 150 µM
[5]
  self-cleavage kobs at 160 uM GlcN6P: 4.35e-05 ± 1.3e-05 s⁻¹
[3]
  self-cleavage kobs at 640 uM GlcN6P: 0.000124 ± 1.6e-05 s⁻¹
[6]
  self-cleavage kobs at 2500 uM GlcN6P: 0.000287 ± 3.6e-05 s⁻¹
[7]
  self-cleavage kobs at 10000 uM GlcN6P: 0.000422 ± 8.8e-05 s⁻¹

## AUAAAAGCGCCAGAACUACAGAAAUGUAGUUGACGAGGAGGAGGUUUAUCGACUUUUCGGCGGGUGCCUCCAAA [A53C A64G]
[1]
  kcat: 0.00338 ± 0.00072 s⁻¹
[4]
  KM: 1710 ± 540 µM
[2]
  self-cleavage kobs at 40 uM GlcN6P: 7.76e-05 ± 1.7e-05 s⁻¹
[5]
  self-cleavage kobs at 160 uM GlcN6P: 0.000218 ± 9.8e-05 s⁻¹
[3]
  self-cleavage kobs at 640 uM GlcN6P: 0.00177 ± 0.00058 s⁻¹
[6]
  self-cleavage kobs at 2500 uM GlcN6P: 0.00249 ± 0.0011 s⁻¹
[7]
  self-cleavage kobs at 10000 uM GlcN6P: 0.00277 ± 0.00054 s⁻¹

## AUAAAAGCGCCAGAACUACAGAAAUGUAGUUGACGAGGAGGAGGUUAAUCGAAUUUUCGGAGGAUGCCUGUAAA [U47A C61A C70G C71U]
[1]
  kcat: 1.64e-05 ± 4.7e-06 s⁻¹

## AUAAAAGCGCCAGAACUACAGAAAUGUAGUUGACGAGGAGGAGGUUUAUCGUAUUUUCGGCGGAUGCCCCCAAA [A52U U69C]
[1]
  kcat: 0.000239 ± 2.7e-05 s⁻¹
[4]
  KM: 1990 ± 540 µM
[3]
  self-cleavage kobs at 640 uM GlcN6P: 5.38e-05 ± 2.2e-05 s⁻¹
[6]
  self-cleavage kobs at 2500 uM GlcN6P: 0.000152 ± 3.9e-05 s⁻¹
[7]
  self-cleavage kobs at 10000 uM GlcN6P: 0.000191 ± 4.2e-05 s⁻¹

## AUAAAUGCGCCAGAACUACAGAAAUGUAGUUGACGAGGAGGAGGUUUAACGAAUUUUCGGCGGAUGCCUCCAAA [A6U U49A]
[1]
  kcat: < 1e-05 s⁻¹
[5]
  self-cleavage kobs at 160 uM GlcN6P: < 1e-05 s⁻¹
[7]
  self-cleavage kobs at 10000 uM GlcN6P: < 1e-05 s⁻¹

## AUAAAAGCGCUAGAACUACAGAAAUGUAGUUGACGAGGUGGAGGUUUAUCGAAUUUUCGGCGGAUGCCUCCAAA [C11U A39U]
[1]
  kcat: 0.00145 ± 0.00027 s⁻¹
[4]
  KM: 3780 ± 1200 µM
[5]
  self-cleavage kobs at 160 uM GlcN6P: 4.38e-05 ± 1.1e-05 s⁻¹
[3]
  self-cleavage kobs at 640 uM GlcN6P: 0.000277 ± 4.8e-05 s⁻¹
[6]
  self-cleavage kobs at 2500 uM GlcN6P: 0.000641 ± 0.00011 s⁻¹
[7]
  self-cleavage kobs at 10000 uM GlcN6P: 0.00102 ± 0.00011 s⁻¹
